For three proteins, Km and kcat results are on record in publication PMC3764422, “A model of yeast glycolysis based on a consistent kinetic characterisation of all its enzymes” (Febs Letters, 2013).

Test in all cases: purified protein
Type in all cases: biochemical, Saccharomyces cerevisiae

Substrate in series [1]: C=C(OP(=O)(O)O)C(=O)O
The following applies: standardised reaction buffer, 30 °C, co-substrate ADP.

Substrate in series [2]: CC=O
The following applies: standardised reaction buffer, 30 °C, co-substrate NADH.

Substrate in series [3]: O=C(CO)COP(=O)(O)O
The settings on record: standardised reaction buffer, 30 °C, measured in-house, also reported in Mendes et al. [42].

B1: Cdc19p (Saccharomyces cerevisiae S288C) (protein)
chain: SRLERLTSLNVVAGSDLRRTSIIGTIGPKTNNPETLVALRKAGLNIVRMNFSHGSYEYHKSVIDNARKSEELYPGRPLAIALDTKGPEIRTGTTTNDVDYPIPPNHEMIFTTDDKYAKACDDKIMYVDYKNITKVISAGRIIYVDDGVLSFQVLEVVDDKTLKVKALNAGKICSHKGVNLPGTDVDLPALSEKDKEDLRFGVKNGVHMVFASFIRTANDVLTIREVLGEQGKDVKIIVKIENQQGVNNFDEILKVTDGVMVARGDLGIEIPAPEVLAVQKKLIAKSNLAGKPVICATQMLESMTYNPRPTRAEVSDVGNAILDGADCVMLSGETAKGNYPINAVTTMAETAVIAEQAIAYLPNYDDMRNCTPKPTSTTETVAASAVAAVFEQKAKAIIVLSTSGTTPRLVSKYRPNCPIILVTRCPRAARFSHLYRGVFPFVFEKEPVSDWTDDVEARINFGIEKAKEFGILKKGDTYVSIQGFKAGAGHSNTLQVSTV
notes: tagged full-length ORF, expressed in and purified from S. cerevisiae
As usually defined, the kcat is the number of substrate molecules converted per active site and unit of time at saturation. With B1, in “purified protein [1]”, the Km is recorded as 0.281 (SEM 12%) mM and the turnover number (kcat) was 20.1 s⁻¹.

B2: Adh1p (Saccharomyces cerevisiae S288C) (protein)
chain: SIPETQKGVIFYESHGKLEYKDIPVPKPKANELLINVKYSGVCHTDLHAWHGDWPLPVKLPLVGGHEGAGVVVGMGENVKGWKIGDYAGIKWLNGSCMACEYCELGNESNCPHADLSGYTHDGSFQQYATADAVQAAHIPQGTDLAQVAPILCAGITVYKALKSANLMAGHWVAISGAAGGLGSLAVQYAKAMGYRVLGIDGGEGKEELFRSIGGEVFIDFTKEKDIVGAVLKATDGGAHGVINVSVSEAAIEASTRYVRANGTTVLVGMPAGAKCCSDVFNQVVKSISIVGSYVGNRADTREALDFFARGLVKSPIKVVGLSTLPEIYEKMEKGQIVGRYVVDTSK
notes: as for B1
With B2, in “purified protein [2]”, the Km was 0.462 (SEM 5.3%) mM and the kcat is 176 s⁻¹.

B3: Tpi1p (Saccharomyces cerevisiae S288C) (protein)
chain: ARTFFVGGNFKLNGSKQSIKEIVERLNTASIPENVEVVICPPATYLDYSVSLVKKPQVTVGAQNAYLKASGAFTGENSVDQIKDVGAKWVILGHSERRSYFHEDDKFIADKTKFALGQGVGVILCIGETLEEKKAGKTLDVVERQLNAVLEEVKDWTNVVVAYEPVWAIGTGLAATPEDAQDIHASIRKFLASKLGDKAASELRILYGGSANGSNAVTFKDKADVDGFLVGGASLKPEFVDIINSRN
notes: as for B1
With B3, in “purified protein [3]”, the Km is 6.45 (SEM 5%) mM.
